No end group written: not given here.
T1: IL-15Rα on CTLL-2 cells (murine (CTLL-2 murine cell line), UniProt Q60819 33-263)
T1 sequence (looked up): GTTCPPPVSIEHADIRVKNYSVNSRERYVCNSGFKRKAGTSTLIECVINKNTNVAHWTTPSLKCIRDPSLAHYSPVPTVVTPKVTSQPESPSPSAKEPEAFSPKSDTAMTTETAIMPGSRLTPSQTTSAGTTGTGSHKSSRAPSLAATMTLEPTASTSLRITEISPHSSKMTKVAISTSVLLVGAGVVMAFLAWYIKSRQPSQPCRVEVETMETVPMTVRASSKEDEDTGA


What follows are binders tested against T1, IL-15Rα on CTLL-2 cells (assay: cell-based or functional assay).

| fold inhibitory activity against the original peptide, CTLL-2 proliferation assay [fold] | inhibitory concentration 50 (IC50), IL-15-dependent proliferation [µM] | Binder |
| --- | --- | --- |
| 5 | – | KVTAMTCFLL-NH2 [peptide SEQ ID No. 12 (Lys-Thr mutant, monomer)] |
| 15 | 8 | KVTAMTCFLL-NH2 (also: homodimer, two monomers linked through the free Cys) [peptide dimer of SEQ ID No. 12 linked through the free Cys] |

Molecular target: T1, IL-15Rα on CTLL-2 cells
Experiment: cell-based or functional assay
Remark: another data set of the same source

| IC50 (µM), IL-15-induced (300 pg/mL) proliferation of the CTLL-2 cell line, MTT [µM] | IC50 (µM), IL-15-induced proliferation of the CTLL-2 cell line, MTT; '0' stands for loss of the inhibitory effect [µM] | Binder |
| --- | --- | --- |
| – | 0 | KVTAMKCALL-NH2 [mutant Phe-Ala (SEQ ID No. 4)] |
| 24.6 | – | KVTAMTCFLL-NH2 [peptide SEQ ID No. 12 (Lys-Thr mutant, monomer)] |
| 57.7 | – | KVTAMTCYLL-NH2 |

Second part, the binder before the results:

| Binder | IC50 (µM), IL-15-induced (300 pg/mL) proliferation of the CTLL-2 cell line, MTT [µM] | IC50 (µM), IL-15-induced proliferation of the CTLL-2 cell line, MTT; '0' stands for loss of the inhibitory effect [µM] |
| --- | --- | --- |
| KATAMKCFLL-NH2 | 130 | – |
| KVTAMKSFLL-NH2 | – | 0 |
| KVTAMKCFLA-NH2 | 260 | – |
| KVTAMKAFLL-NH2 [Cys-Ala mutant (SEQ ID No. 5)] | – | 0 |
| KVTAMKCFAL-NH2 | 200 | – |
| KVTAMKCFLL-NH2 [KVTAMKCFLL (IL-15 antagonistic peptide of patent application No. WO2006/029578)] | 130 | – |
| KVTAAKCFLL-NH2 | 130 | – |
| KVTAMECFLL-NH2 | – | 0 |
| KVAAMKCFLL-NH2 | 130 | – |

From patent US20110251140A1 (CENTRO DE INGENIERIA GENETICA Y BIOTECNOLOGIA, published 2011)
